The data set in a line: soluble on expression in E. coli; label from the status in PepcDB or PDB records.
With “MGSDKIHHHHHHMLSGSTQLMPSTVGLASAHLQYSASFFPTTAVYSLLFPDKSIIIGTVALGYAQTRPQDLPVTHILTKGNRTFKLSIASTPEQLEKGLKFRSSLNGDSGMLFNLGGEIYNVPFWMYKVNFPLDIFYLKDNVVTTAVYNAKPCYKNPCPIYKGKVANQVLELATGTANIKVGDRLNIQPLSSAKE”, the “soluble on expression in E. coli” value is listed as “not soluble”. To “MGSDKIHHHHHHMWFKNLMTYRLTKPLDWDLAQLQTQLEDCQFHPCGTQDQSKFGWSAPLRGSDLLYFSVGKQILLIAKKEEKILPANVVKRELDDRIESLEQKENRKLKKVEKQTLKDDVVMNLLPRAFSKNQHTALWIDTENNLIHIDAASSKRAEDALALLRKSLGSLPVVPLAFANEPSTILTNWILQDNLPHWLLALEEAELRGSQEDSVIRCKKQPLENEEILALLQDGKKVVSKLALEWEDTLTFVFNEDCTIKRLKFADTVREKNDDILKEDFAQRFDADFVLMTGILAKLTENLLDEFGGEKARL” belongs “not soluble”. The value for “MGSDKIHHHHHHMASIQNLYETVVGVLGDQASKVISALGEITVECLPEHYISVMTALRDHEELHFELLVDLCGVDYSTYKNEVWQGKRFAVVSQLLSVKNNQRIRVRVWVSDDDFPVVESVVDIYNSADWYEREAFDMYGIMFNNHPDLRRILTDYGFVGHPFRKDFPISGYVEMRYDEEQKRVIYQPVTIEPREITPRIVREENYGGQ” was “not soluble”; that for “MIEFSHVSKLFGAQKAVNDLNLNFQEGSFSVLIGTSGSGKSTTLKMINRLVEHDSGEIRFAGEEIRSLPVLELRRRMGYAIQSIGLFPHWSVAQNIATVPQLQKWSRARIDDRIDELMALLGLESNLRERYPHQLSGGQQQRVGVARALAADPQVLLMDEPFGALDPVTRGALQQEMTRIHRLLGRTIVLVTHDIDEALRLAEHLVLMDHGEVVQQGNPLTMLTRPANDFVRQFFGRSELGVRLLSLRSVADYVRREERADGEALAEEMTLRDALSLFVARGCEVLPVVNMQGQPCGTLHFQDLLVEA” was “soluble”. For “MGSDKIHHHHHHMIDLDFRKLTIEECLKLSEEEREKLPQLSLETIKRLDPHVKAFISVRENVSVEKKGKFWGIPVAIKDNILTLGMRTTCASRILENYESVFDATVVKKMKEAGFVVVGKANLDEFAMGSSTERSAFFPTRNPWDLERVPGGSSGGSAAAVSAGMVVAALGSDTGGSVRQPASLCGVVGYKPTYGLVSRYGLVAFASSLDQIGPITKTVRDAAILMEIISGRDENDATTVNRKVDFLSEIEEGVSGMKFAVPEEIYEHDIEEGVSERFEEALKLLERLGAKVERVKIPHIKYSVATYYVIAPAEASSNLARFDGVKYGLRIKEKGLREMYMKTRNVGFGEEVRRRIMIGTFTLSAAYYEAYFNKAMKVRRKISDELNEVLSQYDAILTPTSPVTAFKIGEIKDPLTYYLMDIFTIPANLAGLPAISVPFGFSNNLPVGVQVIGRRFADGKVFRIARAIEKNSPYNENGMFPLPEVKA”, the “soluble on expression in E. coli” value is “not soluble”. Turning to “MGSDKIHHHHHHMKKLLAIGILCIMVTAVMSGCVSEKEININNSNKITTNMPVSEKNITKILKYAKNMNLIYYDENGNIVNPYNGDKWKYKVFIDATGQKFLLKNKDDPVPSWAKEKLGDNFKVINVPLTRVIVMSSTEIALMEAINDDGSVIGSVKGIMWGKSYKWYFKDINKSLAEGKIIDVGSSSNPNWDKIIEINPQVIFVYPGYDGDKIIAKCKELGITYVADAEYLENDPLGRCEWVKMFAAFYNKEPEAKRYFEKVEDNCLKVINKTKNCPKVTVAWGYNSQWGCYVPENNSYVAKEIMFYCNGDYIFKDLNGTGSAKINYETFAERAKDADVWVVPSSTAWLSTFKEDNPGYETFKAVKNGRVFCESDDYWQLGLLKTDEVIMDLATILHPEAFKGRKTHFFLKYNIENNTATPFIAK”, the “soluble on expression in E. coli” value is listed as “not soluble”.

In the case of “MGSDKIHHHHHHMDKFKTIALFMSTIETGSFSATAKKHATDPSTVSKAIKRLEEQLGLQLLYRSTRQLSLTSAGQKYADTVGSLYQQLESCEHELKSANNSYSGALKINLPVSYGRVYMLPMLSRFKKAYPDIELEVSFNDQYVDMISDAVDVSIRSGTLNDSRLVAQKLSPMAFVICASSDLLATRKVDISNEGLVALPWVLFRFKQTGKTMPINFSYQGCHIDIEPKKVTIVDDGETMAQMCAEGLGLSLMPHFNAKALVVAGKMKVVAILDEFPSSGVFIVYPKRKDLPRRTQVFIEFVKDYLKEIGETPSKTWLDTSINSS”, the “soluble on expression in E. coli” value was “not soluble”.

Take “MAHHHHHHMLESFEFDQERKEALNTVAELIASTIEGAESQDVHDVLSSSLHLPHNWQEIVQKRAEQRRKLSATFTLFCEETIATPSTDGNAALDISEAPATCFLPELRPKTMPPVTTSATRGFECPSCGNHWDVVDARKSLRNSNTSSAVRELSNADVGFCPVCEDI”: the “soluble on expression in E. coli” value is “not soluble”. To “MKIFVVGAHGQIGQLLVHRLLDRGDTVTGGYRDPIAQTPDPEKNFRAVELDLSWPVDRLADLYAGHDAIVFAAGSRGQDLLGVDLDGAVKTMKAAERADISRFIMLSALDAEDPDKWPDQLHDYYIVKYYADEWLIHNTDLDYVIVQPTALTNDPAQGSITLQPQRPSSIPRADVADVLVAALDSNRHRDTVKIASGNEAIVKALHVLEHHHHHH” belongs “not soluble”; to “MLKRCNFKNQVKYFQSDFEQLIRQHPEKIIILDFYATWCGPCKAIAPLYKELATTHKGIIFCKVDVDEAEDLCSKYDVKMMPTFIFTKNGDAIEALEGCVEDELRQKVLEHVSAQ”, “not soluble”. To “MENSDVINFSCLEKELHSALQADRKYQRENDAKFRALNQKVASYEEFRDIVLASHLKPLDRNDISGSPRKQPWNPVACRTNYVCASSEQVQPQLSEVQPRSASEFIRDWRRFAGCSFEKYSLLVSLGGEALQKIFSTEIGLGLLGEFLLILSQCLKSGDEDRVTGVLDGLSKTGRFSINLSLLSQAEQEACEELFNKLKVAAGECHPYKDNSNTSVVCEAGLTHMEDNKTDITTTLKELAGKYGTEK” belongs “not soluble”; to “MGSDKIHHHHHHMFWFKNVMIYRLTNALQLASNELEPLLQQHRFIGCSQSEMSKFGWTAPLAKTEQLHFCHTKQFLLISHKEDKLLPANVIKAETEERIALLEEKENRKLKKTEKQAIKDDVIAMLLPRAFSKHQFTAIWLDLDAQLVYVDAASSKRAEASLALLRKTLGSLPVVPLSFVQLPAEVMTNWLAKGHTPNWLTLLEEAELKSFETESVIRCKKQELESDEICYHLQAGKLVTKLAIEWENHFSCVLNNDATLTRLKFAGEIIEKNDDILKEDIAQRLDADFLLMTEELRLFTQKLIEEFGGIKE”, “not soluble”; to “MTIWLVTRHPGAIEWVARQGIQWDKHAAHLDPCEITAGDTVIGSLPINLAAEICNRGARYFNLSLNLPAHLRGRELDAATLTACEARLEEYIVKKVNS”, “not soluble”. The value for “GPGSMPAKKKEVKVDEPLFVDEEGSYVHEAEGARYKGGVRRYAPPGGTDAGGTAAPPAKNSRSRSTSSPGKGGATPPPSAAAGAAASMAVVSDAPVFRHGRGVYTCPSFTYAGDWVEDEMHGSGQLTFVESGNIYEGEFSHGCFSGQGTYQWRDGALYCGQWRSNRMHGEGIYTDVQGHVWKGRYYNGTGPGLIRLYPTLERVDDAGPSSPGPDATNAAATVANS” was “soluble”; that for “MADAAEGEQPKLSKKELNKLARKAKKDEKAGEKGGNQQQAAAMDQEDASKDFYGSYGLVNSKEKKVLNFLKVKEINVSNATKDVWVRGRIHTTRSKGKNCFLVLRQGVYTVQVAMFMNEKISKQMLKFVSSISKESIVDVYATINKVDNPIESCTQKDVELLAQQVFVVSTSAPKLPLQIEDASRRAPTDEEKASEQENQLAVVNLDTRLDNRVIDLRTPTSHAIFRIQAGICNQFRNILDVRGFVEIMAPKIISAPSEGGANVFEVSYFKGSAYLAQSPQLYKQMAIAGDFEKVYTIGPVFRAEDSNTHRHMTEFVGLDLEMAFNFHYHEVMETIAEVLTQMFKGLQQNYQDEIAAVGNQYPAEPFQFCEPPLILKYPDAITLLRENGIEIGDEDDLSTPVEKFLGKLVKEKYSTDFYVLDKFPLSVRPFYTMPDAHDERYSNSYDMFMRGEEILSGAQRIHDADMLVERAKHHQVDLAKIQSYIDSFKYGCPPHAGGGIGLERVTMLFLGLHNIRLASLFPRDPKRLTP” was “not soluble”.

Values taken from the DeepSol protein solubility set.
